This data set deals with ATP. Briefly: switch fluorescence ratio, 500 uM ATP over buffer (Cy3 cluster intensity, sum of 5 cycles each) (fold (ratio)); higher = stronger signal-on switching upon ATP binding; sequences stand for … in TCGTCGGCAGCGTCAGATGTGTATAAGAGACAGTTTTTTTTTTTTTTTTTTTTTTTTT…TC. The conditions noted are these: aptamer strand: ATP DNA aptamer (quencher-CACCTGGGGGAGTATTGCGGAGGAAGG + anchor), 100 nM annealed; ATP concentration: 500 uM. The procedure, abridged: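 Cy3-labelled switching-strand clusters on a modified Illumina MiSeq flow-cell were annealed to 100 nM quencher-labelled ATP aptamer, imaged in selection buffer, then imaged after 15 min with 500 uM ATP at 22 °C. Five buffer/ATP cycles ran, with NaOH stripping and re-annealing between them. The fluorescence ratio is summed target-cycle over summed buffer-cycle Cy3 intensity per cluster, averaged per switch-domain sequence. Clusters outside 100-1000 RFU were excluded.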

The values that follow come from the supplement of paper PMC10126150.

± gives the standard deviation of the averaged measurements.
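Note: ATP exposure 15 min at 22 °C before imaging.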

As for TTGGAGGAAA, the switch fluorescence ratio was found to be 1.09 ± 0.13. For TTGGAGGCGA the value was 0.994 ± 0.062; for TTGGAGGGCG, 1.03 ± 0.017; for TTGGAGGGTT, 0.992 ± 0.017. The value for TTGGAGTGGT was 1.03 ± 0.013. The value for TTGGAGTTGT was 1.02 ± 0.098; that for TTGGATATTC was 0.997 ± 0.033; that for TTGGATCCGC was 1.32 ± 0.45.

As for TTGGATCCGG, the switch fluorescence ratio was determined as 0.98 ± 0.039. The value for TTGGATGAGG was 0.973 ± 0.048; that for TTGGATGCGG was 1.0022 ± 0.00011. The value for TTGGATGGTT was 1.01 ± 0.03; that for TTGGATGTAA was 1 ± 0.036; that for TTGGATTTCA was 0.972 ± 0.045. The value for TTGGCACAAT was 1.05 ± 0.026. As to TTGGCACGGG, the switch fluorescence ratio is 1.03 ± 0.022.

Take TTGGCAGGGG: the switch fluorescence ratio came out at 1.06 ± 0.047.

Consider TTGGCCGATG, for which the switch fluorescence ratio was determined as 1.001 ± 0.0098.

TTGGCCGCAC: the switch fluorescence ratio is 2.67 ± 0.049.

For TTGGCCGGAT, the switch fluorescence ratio stood at 0.9532 ± 0.0042.

On to TTGGCGCCTG, for which the switch fluorescence ratio is 0.9947 ± 0.0075.

For the sequence TTGGCGGAGG, the switch fluorescence ratio turned out to be 1.007 ± 0.0058. The value for TTGGCGGGGC was 1.02 ± 0.012; that for TTGGCGTTGG was 0.987 ± 0.026. The value for TTGGCGTTTT was 1.04 ± 0.026; that for TTGGCTGGCT was 1.08 ± 0.071; that for TTGGCTGTAG was 1.13 ± 0.13.

For the sequence TTGGCTTAGG, the switch fluorescence ratio was 1.05 ± 0.096.

Consider TTGGCTTAGT, for which the switch fluorescence ratio is 0.991 ± 0.034. For TTGGGAAAGG the value was 1.002 ± 0.0053; for TTGGGAATAC, 3.23 ± 0.53; for TTGGGACCGT, 1 ± 0.0015. The value for TTGGGACGAC was 1.022 ± 0.0084.

Regarding TTGGGACTTC, the switch fluorescence ratio is 1.03 ± 0.012. For TTGGGAGGCT the value was 1 ± 0.044; for TTGGGAGGGC, 1.18 ± 0.27; for TTGGGAGTGT, 0.994 ± 0.031. The value for TTGGGATTGT was 0.989 ± 0.014; that for TTGGGCAACA was 1.05 ± 0.079. The value for TTGGGCAACG was 1.06 ± 0.022; that for TTGGGCAATA was 1.77 ± 0.35; that for TTGGGCAGCA was 0.99411 ± 0.00084.

As to TTGGGCCGGT, the switch fluorescence ratio came out at 1 ± 0.037.

Take TTGGGCGATT: the switch fluorescence ratio was found to be 1.06 ± 0.045.

As for TTGGGCGGAA, the switch fluorescence ratio is 1.03 ± 0.071. For TTGGGCGGCG the value was 0.982 ± 0.074. For TTGGGCGGGA the value was 0.968 ± 0.099. In the case of TTGGGCGTTT, the switch fluorescence ratio stood at 1 ± 0.043. For TTGGGCTACG the value was 1.002 ± 0.0048. The value for TTGGGCTCAG was 0.982 ± 0.013; that for TTGGGCTGGA was 0.961 ± 0.054; that for TTGGGCTTGG was 0.997 ± 0.033. For TTGGGGAAAA, the switch fluorescence ratio is 1.04 ± 0.054.

Turning to TTGGGGACAT, the switch fluorescence ratio amounted to 0.98 ± 0.043. For TTGGGGAGAT the value was 0.989 ± 0.014; for TTGGGGAGGT, 1.01 ± 0.037; for TTGGGGCAAC, 1.03 ± 0.047. With TTGGGGCTGG, the switch fluorescence ratio came out at 1.01 ± 0.013.

Take TTGGGGCTT: the switch fluorescence ratio stood at 1.32 ± 0.41. For TTGGGGCTTG the value was 0.998 ± 0.012. For TTGGGGGAAC the value was 1 ± 0.014. Regarding TTGGGGGAGT, the switch fluorescence ratio came to 1.03 ± 0.022. For TTGGGGGATC the value was 0.982 ± 0.015; for TTGGGGGATT, 1 ± 0.022.

As to TTGGGGGCAC, the switch fluorescence ratio turned out to be 1.024 ± 0.0069.

Consider TTGGGGGCCC, for which the switch fluorescence ratio stood at 1.01 ± 0.033. For TTGGGGGGAT the value was 1.02 ± 0.053; for TTGGGGGGCT, 1.01 ± 0.09. For the sequence TTGGGGGGG, the switch fluorescence ratio was 1.02 ± 0.035.

As for TTGGGGGGTA, the switch fluorescence ratio is 0.987 ± 0.028. For TTGGGGGTGC the value was 0.997 ± 0.052; for TTGGGGGTTC, 1.01 ± 0.05; for TTGGGGTATC, 1.01 ± 0.02.

In the case of TTGGGGTCGG, the switch fluorescence ratio came to 0.999 ± 0.037. The value for TTGGGGTCTT was 1.02 ± 0.043; that for TTGGGGTGCT was 0.992 ± 0.035. The value for TTGGGTATTG was 0.966 ± 0.034; that for TTGGGTCTCC was 1.03 ± 0.027. The value for TTGGGTCTTC was 0.9736 ± 0.0014. Take TTGGGTGCAG: the switch fluorescence ratio amounted to 1.016 ± 0.0075. TTGGGTGCCG: the switch fluorescence ratio was determined as 1.03 ± 0.048. TTGGGTTAAG: the switch fluorescence ratio was determined as 0.983 ± 0.015. Turning to TTGGGTTAGG, the switch fluorescence ratio was 0.979 ± 0.021. The value for TTGGGTTATG was 1 ± 0.013.

Turning to TTGGGTTATT, the switch fluorescence ratio came out at 0.979 ± 0.029. The value for TTGGGTTCCG was 0.996 ± 0.057. For TTGGGTTGCT the value was 1.12 ± 0.21; for TTGGGTTGTT, 0.986 ± 0.033. The value for TTGGGTTTGT was 0.997 ± 0.017; that for TTGGTAAGAC was 1.14 ± 0.12; that for TTGGTAGCGG was 1.02 ± 0.034. With TTGGTAGGGT, the switch fluorescence ratio turned out to be 0.995 ± 0.031.

TTGGTAGTGC: the switch fluorescence ratio was 0.973 ± 0.015. With TTGGTATGTG, the switch fluorescence ratio was 0.968 ± 0.017. As for TTGGTCGCGT, the switch fluorescence ratio came to 1.003 ± 0.0019. The value for TTGGTCGGGA was 1.15 ± 0.2; that for TTGGTGCAGC was 1.025 ± 0.0075; that for TTGGTGCCTT was 1.07 ± 0.033. The value for TTGGTGGCGG was 0.978 ± 0.028. The value for TTGGTGGGCA was 0.993 ± 0.038. For TTGGTGGGTA, the switch fluorescence ratio came to 0.988 ± 0.013. For TTGGTGGGTG, the switch fluorescence ratio worked out at 1.01 ± 0.045. For TTGGTGGTCC the value was 0.999 ± 0.012. For TTGGTGGTTC the value was 0.99 ± 0.037; for TTGGTGTCGC, 1.016 ± 0.0034; for TTGGTGTCTT, 0.959 ± 0.011. As for TTGGTTAAGT, the switch fluorescence ratio came out at 1.01 ± 0.046. For TTGGTTAGGG the value was 0.986 ± 0.027; for TTGGTTATAG, 1.01 ± 0.011; for TTGGTTATCG, 0.97068 ± 0.00069. The value for TTGGTTCGCC was 1.003 ± 0.0097. The value for TTGGTTGAGA was 0.9939 ± 0.0071; that for TTGGTTGCGG was 1.02 ± 0.024. With TTGGTTTAGG, the switch fluorescence ratio was 0.983 ± 0.022. The value for TTGGTTTATC was 1 ± 0.015; that for TTGGTTTTAA was 1.03 ± 0.014. For TTGTAATGAT the value was 0.988 ± 0.027; for TTGTAATTAG, 1 ± 0.039; for TTGTACGCTA, 1.82 ± 0.73. For the sequence TTGTACGTGG, the switch fluorescence ratio was determined as 1.07 ± 0.023.
